Experiments:
Test in all cases: fluorescence polarization; FP: 50 mM KCl or as listed 100 mM KCl in both 2x buffers, HEPES (10 mM acid + 10 mM Na salt), 10% glycerol, 1 mM TCEP, tRNA, heparin, BSA, 0.3 nM FAM-RNA; EMSA: 100 mM KCl, 20% sucrose, 20 mM bis-tris/10 mM HCl pH ~6.5, 1 mM EDTA, 1 mM TCEP, 0.01% Triton X-100, tRNA, heparin, BSA, room temperature, gel at 4 C
Lsm2-8 Lsm8-delC = target: T1, Lsm2-8 Lsm8-delC (Saccharomyces cerevisiae, UniProt P38203;P57743;P40070;P40089;Q06406;P53905;P47093 …); conditions: protein: recombinant; tags: as P1; copies: 1;1;1;1;1;1;1; label: 5'-FAM; single strand
T1 sequence 1: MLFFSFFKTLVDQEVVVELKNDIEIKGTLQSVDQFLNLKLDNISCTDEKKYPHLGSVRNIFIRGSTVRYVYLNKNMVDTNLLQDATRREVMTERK
T1 sequence 2: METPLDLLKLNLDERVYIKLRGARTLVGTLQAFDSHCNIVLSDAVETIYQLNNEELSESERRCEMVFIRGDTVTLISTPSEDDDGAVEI
T1 sequence 3: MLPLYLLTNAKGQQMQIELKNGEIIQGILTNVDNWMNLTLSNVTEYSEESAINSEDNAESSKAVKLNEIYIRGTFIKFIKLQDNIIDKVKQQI
T1 sequence 4: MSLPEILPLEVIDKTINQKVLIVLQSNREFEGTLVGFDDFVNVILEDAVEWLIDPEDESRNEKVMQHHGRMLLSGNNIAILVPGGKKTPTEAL
T1 sequence 5: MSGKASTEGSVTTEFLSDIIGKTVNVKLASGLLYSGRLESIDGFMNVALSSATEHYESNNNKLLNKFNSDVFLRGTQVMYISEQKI
T1 sequence 6: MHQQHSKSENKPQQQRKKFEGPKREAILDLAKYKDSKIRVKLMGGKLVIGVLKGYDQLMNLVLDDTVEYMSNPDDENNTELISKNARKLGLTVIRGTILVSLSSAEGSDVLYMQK
T1 sequence 7: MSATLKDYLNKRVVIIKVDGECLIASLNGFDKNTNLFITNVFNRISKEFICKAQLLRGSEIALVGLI

Lsm2-8 Lsm3-R21A = target: T2, Lsm2-8 Lsm3-R21A (Saccharomyces cerevisiae, UniProt P38203;P57743;P40070;P40089;Q06406;P53905;P47093 …, R21A); conditions: protein: recombinant; tags: as P1; copies: 1;1;1;1;1;1;1; label: 5'-FAM; single strand
T2 sequence 1: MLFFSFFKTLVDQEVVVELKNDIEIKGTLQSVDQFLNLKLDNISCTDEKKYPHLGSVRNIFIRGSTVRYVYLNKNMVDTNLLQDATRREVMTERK
T2 sequence 2: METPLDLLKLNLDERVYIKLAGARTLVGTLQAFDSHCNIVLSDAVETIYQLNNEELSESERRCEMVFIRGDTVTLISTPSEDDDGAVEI
T2 sequence 3: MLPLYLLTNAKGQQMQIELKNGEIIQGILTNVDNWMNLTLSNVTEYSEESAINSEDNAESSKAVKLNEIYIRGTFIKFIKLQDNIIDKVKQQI
T2 sequence 4: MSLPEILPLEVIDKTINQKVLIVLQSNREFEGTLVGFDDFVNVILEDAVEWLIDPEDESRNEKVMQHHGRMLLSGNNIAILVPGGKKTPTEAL
T2 sequence 5: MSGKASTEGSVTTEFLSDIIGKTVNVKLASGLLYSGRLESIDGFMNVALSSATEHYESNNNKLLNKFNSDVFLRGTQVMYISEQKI
T2 sequence 6: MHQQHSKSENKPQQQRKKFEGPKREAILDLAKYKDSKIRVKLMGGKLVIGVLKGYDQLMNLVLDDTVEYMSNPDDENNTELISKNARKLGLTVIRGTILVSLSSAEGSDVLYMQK
T2 sequence 7: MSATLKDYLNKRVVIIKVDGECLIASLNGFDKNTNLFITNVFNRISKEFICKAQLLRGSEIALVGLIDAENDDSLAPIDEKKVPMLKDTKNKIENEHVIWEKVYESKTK

Lsm2-8 Lsm2-K20A = target: T3, Lsm2-8 Lsm2-K20A (Saccharomyces cerevisiae, UniProt P38203;P57743;P40070;P40089;Q06406;P53905;P47093 …, K20A); conditions: protein: recombinant; tags: as P1; copies: 1;1;1;1;1;1;1; label: 5'-FAM; single strand
T3 sequence 1: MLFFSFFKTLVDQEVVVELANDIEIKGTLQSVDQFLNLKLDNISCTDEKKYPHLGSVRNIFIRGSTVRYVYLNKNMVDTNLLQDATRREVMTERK
T3 sequence 2: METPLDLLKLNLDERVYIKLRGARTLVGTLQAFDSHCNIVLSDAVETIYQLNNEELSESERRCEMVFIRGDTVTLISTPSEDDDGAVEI
T3 sequence 3: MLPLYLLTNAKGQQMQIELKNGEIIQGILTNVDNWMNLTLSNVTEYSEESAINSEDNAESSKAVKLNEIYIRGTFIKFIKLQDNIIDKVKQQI
T3 sequence 4: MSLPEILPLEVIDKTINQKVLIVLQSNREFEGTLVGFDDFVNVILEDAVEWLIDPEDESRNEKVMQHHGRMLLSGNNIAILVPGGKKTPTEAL
T3 sequence 5: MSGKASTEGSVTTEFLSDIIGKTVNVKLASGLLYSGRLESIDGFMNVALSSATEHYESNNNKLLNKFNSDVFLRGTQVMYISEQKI
T3 sequence 6: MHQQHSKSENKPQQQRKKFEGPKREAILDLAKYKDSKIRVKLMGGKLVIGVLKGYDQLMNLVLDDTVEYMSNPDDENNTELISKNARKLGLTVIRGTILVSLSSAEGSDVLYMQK
T3 sequence 7: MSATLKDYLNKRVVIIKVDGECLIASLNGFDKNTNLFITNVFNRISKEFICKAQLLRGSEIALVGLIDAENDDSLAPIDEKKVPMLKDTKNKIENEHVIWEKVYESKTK

Lsm2-8 construct 2 (WT) = target: T4, Lsm2-8 construct 2 (WT) (Saccharomyces cerevisiae, UniProt P38203;P57743;P40070;P40089;Q06406;P53905;P47093 …); conditions: protein: recombinant; tags: Lsm8 C-terminal His6 (non-cleavable); Lsm3 C-terminal StrepII (non-cleavable); MBP on Lsm6 (TEV-labile); copies: 1;1;1;1;1;1;1; label: 5'-FAM; single strand
T4 sequence 1: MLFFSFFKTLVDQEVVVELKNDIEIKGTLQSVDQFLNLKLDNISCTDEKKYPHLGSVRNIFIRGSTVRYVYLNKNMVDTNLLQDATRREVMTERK
T4 sequence 2: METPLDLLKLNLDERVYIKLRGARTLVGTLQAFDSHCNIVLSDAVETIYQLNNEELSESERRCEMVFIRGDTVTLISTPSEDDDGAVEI
T4 sequence 3: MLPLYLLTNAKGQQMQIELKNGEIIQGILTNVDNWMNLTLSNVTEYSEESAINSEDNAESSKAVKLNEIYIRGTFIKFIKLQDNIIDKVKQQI
T4 sequence 4: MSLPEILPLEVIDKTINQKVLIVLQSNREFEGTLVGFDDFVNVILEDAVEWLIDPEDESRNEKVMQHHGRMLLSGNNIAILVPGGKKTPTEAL
T4 sequence 5: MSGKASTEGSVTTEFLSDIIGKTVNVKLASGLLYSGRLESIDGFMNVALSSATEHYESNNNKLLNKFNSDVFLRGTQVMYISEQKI
T4 sequence 6: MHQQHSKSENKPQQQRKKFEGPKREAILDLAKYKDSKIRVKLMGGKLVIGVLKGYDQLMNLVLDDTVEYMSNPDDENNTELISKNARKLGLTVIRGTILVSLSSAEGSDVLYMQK
T4 sequence 7: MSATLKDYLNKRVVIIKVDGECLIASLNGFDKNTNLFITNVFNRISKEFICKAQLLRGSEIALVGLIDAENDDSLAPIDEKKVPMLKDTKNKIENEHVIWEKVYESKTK

Lsm2-8 Lsm3-R21E = target: T5, Lsm2-8 Lsm3-R21E (Saccharomyces cerevisiae, UniProt P38203;P57743;P40070;P40089;Q06406;P53905;P47093 …, R21E); conditions: protein: recombinant; tags: as P1; copies: 1;1;1;1;1;1;1; label: 5'-FAM; single strand
T5 sequence 1: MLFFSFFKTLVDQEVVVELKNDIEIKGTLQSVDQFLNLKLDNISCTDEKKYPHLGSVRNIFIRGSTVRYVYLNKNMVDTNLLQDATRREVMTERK
T5 sequence 2: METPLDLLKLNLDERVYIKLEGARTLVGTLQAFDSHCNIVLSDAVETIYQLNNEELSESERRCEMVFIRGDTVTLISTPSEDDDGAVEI
T5 sequence 3: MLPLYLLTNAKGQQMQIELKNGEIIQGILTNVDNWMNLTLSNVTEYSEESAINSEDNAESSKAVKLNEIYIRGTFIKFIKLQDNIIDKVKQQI
T5 sequence 4: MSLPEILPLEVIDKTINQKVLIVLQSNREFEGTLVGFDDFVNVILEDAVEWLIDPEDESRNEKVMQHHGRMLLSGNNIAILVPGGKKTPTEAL
T5 sequence 5: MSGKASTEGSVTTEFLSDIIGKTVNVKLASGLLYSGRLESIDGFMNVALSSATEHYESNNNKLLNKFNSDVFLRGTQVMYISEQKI
T5 sequence 6: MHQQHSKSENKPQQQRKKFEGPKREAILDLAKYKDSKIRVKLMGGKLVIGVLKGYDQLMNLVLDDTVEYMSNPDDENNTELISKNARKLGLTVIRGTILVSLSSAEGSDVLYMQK
T5 sequence 7: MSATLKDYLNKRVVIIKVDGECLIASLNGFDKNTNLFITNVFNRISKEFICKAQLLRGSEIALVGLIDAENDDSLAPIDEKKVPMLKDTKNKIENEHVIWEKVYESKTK

Lsm2-8 Lsm2-K20E = target: T6, Lsm2-8 Lsm2-K20E (Saccharomyces cerevisiae, UniProt P38203;P57743;P40070;P40089;Q06406;P53905;P47093 …, K20E); conditions: protein: recombinant; tags: as P1; copies: 1;1;1;1;1;1;1; label: 5'-FAM; single strand
T6 sequence 1: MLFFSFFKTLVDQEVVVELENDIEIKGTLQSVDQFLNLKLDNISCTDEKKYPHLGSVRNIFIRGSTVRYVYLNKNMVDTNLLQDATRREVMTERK
T6 sequence 2: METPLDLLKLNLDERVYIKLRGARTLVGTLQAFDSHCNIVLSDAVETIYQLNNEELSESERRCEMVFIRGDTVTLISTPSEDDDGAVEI
T6 sequence 3: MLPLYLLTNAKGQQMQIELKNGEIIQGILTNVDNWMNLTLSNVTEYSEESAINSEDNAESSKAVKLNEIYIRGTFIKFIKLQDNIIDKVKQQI
T6 sequence 4: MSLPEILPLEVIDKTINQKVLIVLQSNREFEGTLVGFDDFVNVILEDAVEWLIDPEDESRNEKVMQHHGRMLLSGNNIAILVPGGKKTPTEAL
T6 sequence 5: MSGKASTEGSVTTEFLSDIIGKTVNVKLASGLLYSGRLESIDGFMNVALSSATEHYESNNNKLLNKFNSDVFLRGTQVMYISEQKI
T6 sequence 6: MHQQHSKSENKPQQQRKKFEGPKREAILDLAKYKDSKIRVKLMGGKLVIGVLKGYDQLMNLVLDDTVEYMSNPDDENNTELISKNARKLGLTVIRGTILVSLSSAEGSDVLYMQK
T6 sequence 7: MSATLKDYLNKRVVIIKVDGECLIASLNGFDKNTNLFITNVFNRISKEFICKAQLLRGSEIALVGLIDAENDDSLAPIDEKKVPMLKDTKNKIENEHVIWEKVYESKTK

Binder	Kd (Lsm2-8 Lsm8-delC) [µM]	Kd (Lsm2-8 Lsm3-R21A) [µM]	Kd (Lsm2-8 Lsm2-K20A) [µM]	Kd (Lsm2-8 construct 2 (WT)) [µM]	Kd (Lsm2-8 Lsm3-R21E) [µM]	Kd (Lsm2-8 Lsm2-K20E) [µM]
UUUCGUUUUU (ssRNA, none (3' phosphate removed with CIP)) [U6 104-113 2',3'-cis diol]	0.277 ± 0.032	0.0408 ± 0.0033	0.522 ± 0.048	0.0374 ± 0.0045	0.195 ± 0.027	1.87 ± 0.37
UUUCGUUUUU (ssRNA, 3' phosphate) [U6 104-113 3' phosphate]	0.502 ± 0.047	0.123 ± 0.012	0.841 ± 0.089	0.00613 ± 0.00087	1.15 ± 0.19	2.32 ± 0.45

Reference: publication PMC5931518, “Architecture of the U6 snRNP reveals specific recognition of 3′-end processed U6 snRNA”
